From paper PMC3469469
Where two headings read alike, the source gives them in different places.

Columns and labels:
C3d C3d (Homo sapiens) [1] = biological target: C3d C3d (Homo sapiens) (UniProt P01024); details: cited from earlier work
complement C3b (human) = complement C3b (human) (UniProt P01024)
C3d C3d (Homo sapiens) [2] = biological target: C3d C3d (Homo sapiens) (UniProt P01024); details: cited from earlier work; remark: listed apart in the source

Sequence of C3d C3d (Homo sapiens) (P01024 1002-1303): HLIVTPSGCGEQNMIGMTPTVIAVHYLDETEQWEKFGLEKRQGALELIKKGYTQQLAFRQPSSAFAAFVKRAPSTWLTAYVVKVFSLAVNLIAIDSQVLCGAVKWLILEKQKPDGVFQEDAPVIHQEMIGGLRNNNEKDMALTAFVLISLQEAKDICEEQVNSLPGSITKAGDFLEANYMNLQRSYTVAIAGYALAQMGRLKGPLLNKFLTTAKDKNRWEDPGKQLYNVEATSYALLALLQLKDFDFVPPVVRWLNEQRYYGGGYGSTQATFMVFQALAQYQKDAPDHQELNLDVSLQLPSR
Sequence of Efb Efb-C (P68799 101-165): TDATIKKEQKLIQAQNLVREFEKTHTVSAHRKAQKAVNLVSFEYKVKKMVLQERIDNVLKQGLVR
Sequence of Efb-C (domain or fragment) (A6QG59 101-165 limits assumed): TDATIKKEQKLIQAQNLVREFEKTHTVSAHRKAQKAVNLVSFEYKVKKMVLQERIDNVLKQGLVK

Row | Substance | C3b left on serum-opsonized S. aureus after plasmin with 2 µM fragment, flow cytometry (amount without plasmin set to 100%) (complement C3b (human)) [%] | other results
1 | Efb Efb-C (from UniProt P68799) |  | Kd (C3d C3d (Homo sapiens) [1]): 0.8 nM
2 | Efb-C (domain or fragment) | 38 | 
3 | Sbi 3–4 (domain or fragment) | 50 | 
4 | Sbi domains 3-4 (from UniProt A7X659) |  | Kd (C3d C3d (Homo sapiens) [2]): 1400 nM
